In patent US20220154204A1, “ENHANCING DROUGHT, SALINITY AND COLD TOLERANCE IN PLANTS AND TREES” (The Regents of the University of California, priority 2019, published 2022):

Target: T1, OST1/SnRK2.6 (Arabidopsis thaliana, UniProt Q940H6)
T1 construct: made in house; host or cells: E. coli
T1 sequence (Q940H6 1-362): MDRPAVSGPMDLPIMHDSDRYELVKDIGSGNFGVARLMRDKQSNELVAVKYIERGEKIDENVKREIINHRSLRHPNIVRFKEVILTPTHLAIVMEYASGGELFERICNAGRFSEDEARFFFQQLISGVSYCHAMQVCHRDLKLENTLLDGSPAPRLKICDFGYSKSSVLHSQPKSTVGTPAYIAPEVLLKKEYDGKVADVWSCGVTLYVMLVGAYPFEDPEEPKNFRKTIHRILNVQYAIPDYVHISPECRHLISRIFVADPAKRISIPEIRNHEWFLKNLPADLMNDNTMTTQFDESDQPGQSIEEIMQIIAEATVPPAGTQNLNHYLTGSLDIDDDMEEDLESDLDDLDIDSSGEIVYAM
Assay: In vitro phosphorylation assay of CIAP-dephosphorylated GST-OST1/SnRK2.6 with other protein kinases
Type: biochemical
Details: GST-OST1/SnRK2.6 dephosphorylated by CIAP, [γ-32P]-ATP
Procedure: We investigated phosphorylation of purified recombinant GST-tagged OST1/SnRK2.6 protein kinase after dephosphorylation in vitro. To test whether OST1/SnRK2.6 could be re-activated by autophosphorylation, after dephosphorylation, the GST-OST1/SnRK2.6 protein bound on glutathione sepharose 4B resin was incubated with calf intestinal alkaline phosphatase (CIAP), and [γ-^32P]-ATP was added to the reaction after wash out of CIAP. […] Therefore, another unknown protein kinase may be required for reversible ABA signal transduction.
10 μg GST-OST1/SnRK2.6 proteins were bound to glutathione sepharose 4B beads and incubated with 30 U CIAP for 2 hr at room temperature. […]
a, Seeds of amiR-HsMYO wild-type (control line) or amiR-ax1117 mutant were sowed on ½ MS medium containing 2 μM ABA, or 0.02% EtOH as control, for germination assays. Representative images showing seed germination after 6 days. b, The percentage of seedlings showing green cotyledons was analyzed. […] In-gel kinase assays were performed using histone type III-S as a substrate. e, SnRK2 band intensities as shown in (d) were measured using ImageJ, n=3 experiments, error bars show +/−s.e.m. f, Recombinant GST-OST1/SnRK2.6 protein was dephosphorylated by alkaline phosphatase in vitro and used for in vitro phosphorylation assays after incubation with CPK6, CPK23 or MPK12 protein kinases. […]

B1: CPKδ: calcium-dependent protein kinase of ABA signalling (protein, UniProt Q38872 2-544, looked up)
Calcium-dependent protein …: GNSCRGSFKDKIYEGNHSRPEENSKSTTTTVSSVHSPTTDQDFSKQNTNPALVIPVKEPIMRRNVDNQSYYVLGHKTPNIRDLYTLSRKLGQGQFGTTYLCTDIATGVDYACKSISKRKLISKEDVEDVRREIQIMHHLAGHKNIVTIKGAYEDPLYVHIVMELCAGGELFDRIIHRGHYSERKAAELTKIIVGVVEACHSLGVMHRDLKPENFLLVNKDDDFSLKAIDFGLSVFFKPGQIFKDVVGSPYYVAPEVLLKHYGPEADVWTAGVILYILLSGVPPFWAETQQGIFDAVLKGYIDFDTDPWPVISDSAKDLIRKMLCSSPSERLTAHEVLRHPWICENGVAPDRALDPAVLSRLKQFSAMNKLKKMALKVIAESLSEEEIAGLRAMFEAMDTDNSGAITFDELKAGLRRYGSTLKDTEIRDLMEAADVDNSGTIDYSEFIAATIHLNKLEREEHLVSAFQYFDKDGSGYITIDELQQSCIEHGMTDVFLEDIIKEVDQDNDGRIDYEEFVAMMQKGNAGVGRRTMKNSLNISMRDV
  phosphorylation of OST1/SnRK2.6 after dephosphorylation: did not phosphorylate

B2: MPK12: MAP kinase of ABA signalling (protein)
chain: MSGESSSGSTEHCIKVVPTHGGRYVQYNVYGQLFEVSRKYVPPIRPIGRGACGIVCAAVNSVTGEKVAIKKIGNAFDNIIDAKRTLREIKLLRHMDHENVITIKDIVRPPQRDIFNDVYIVYELMDTDLQRILRSNQTLTSDQCRFLVYQLLRGLKYVHSANILHRDLRPSNVLLNSKNELKIGDFGLARTTSDTDFMTEYVVTRWYRAPELLLNCSEYTAAIDIWSVGCILGEIMTGQPLFPGKDYVHQLRLITELVGSPDNSSLGFLRSDNARRYVRQLPRYPKQQFAARFPKMPTTAIDLLERMLVFDPNRRISVDEALGHAYLSPHHDVAKEPVCSTPFSFDFEHPSCTEEHIKELIYKESVKFNPDH
  phosphorylation of OST1/SnRK2.6 after dephosphorylation: did not phosphorylate
